Test results published in patent EP4660205A1 (Beijing Wisdomab Biotechnology Co., Ltd, dated 2025).
Numbering of substitutions follows the chain as printed. Where two headings read alike, the source gives them in different places.

T1: human IL-1R3 on the cell surface (HaCAT cells, PBMC/NK cells, MRC-5 cells) (human, UniProt Q9NPH3 21-570)
T1 sequence (looked up): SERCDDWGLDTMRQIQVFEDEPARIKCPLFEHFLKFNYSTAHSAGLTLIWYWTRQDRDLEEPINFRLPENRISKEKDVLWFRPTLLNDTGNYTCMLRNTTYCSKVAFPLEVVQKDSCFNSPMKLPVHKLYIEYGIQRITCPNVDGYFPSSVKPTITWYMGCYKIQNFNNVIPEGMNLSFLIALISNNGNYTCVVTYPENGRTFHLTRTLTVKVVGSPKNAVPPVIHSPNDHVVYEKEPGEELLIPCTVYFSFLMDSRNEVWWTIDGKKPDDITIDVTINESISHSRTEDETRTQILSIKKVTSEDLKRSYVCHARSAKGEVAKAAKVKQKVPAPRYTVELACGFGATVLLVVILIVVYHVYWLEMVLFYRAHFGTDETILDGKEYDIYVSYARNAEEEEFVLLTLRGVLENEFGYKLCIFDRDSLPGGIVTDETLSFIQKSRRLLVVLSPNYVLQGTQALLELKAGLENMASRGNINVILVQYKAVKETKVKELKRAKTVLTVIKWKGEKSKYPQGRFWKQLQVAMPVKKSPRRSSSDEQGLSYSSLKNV

T2: hIL-1R3-His (extracellular domain of human IL-1R3 with C-terminal His tag) (human (homo sapiens), UniProt Q9NPH3 21-359)
T2 sequence: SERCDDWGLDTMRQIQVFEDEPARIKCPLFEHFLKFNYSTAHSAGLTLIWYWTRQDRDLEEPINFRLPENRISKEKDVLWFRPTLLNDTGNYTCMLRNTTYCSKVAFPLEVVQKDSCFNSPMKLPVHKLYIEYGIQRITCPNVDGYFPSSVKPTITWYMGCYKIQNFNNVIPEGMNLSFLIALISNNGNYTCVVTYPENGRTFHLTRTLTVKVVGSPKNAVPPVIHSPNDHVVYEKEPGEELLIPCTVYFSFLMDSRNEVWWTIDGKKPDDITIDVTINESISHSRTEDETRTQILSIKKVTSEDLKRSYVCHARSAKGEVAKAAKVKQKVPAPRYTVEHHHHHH

T3: human IL-36R on the cell surface (HEK-Blue IL-36 cells, HaCAT cells, human CD14+ monocytes) (human, UniProt Q9HB29 20-575)
T3 sequence (looked up): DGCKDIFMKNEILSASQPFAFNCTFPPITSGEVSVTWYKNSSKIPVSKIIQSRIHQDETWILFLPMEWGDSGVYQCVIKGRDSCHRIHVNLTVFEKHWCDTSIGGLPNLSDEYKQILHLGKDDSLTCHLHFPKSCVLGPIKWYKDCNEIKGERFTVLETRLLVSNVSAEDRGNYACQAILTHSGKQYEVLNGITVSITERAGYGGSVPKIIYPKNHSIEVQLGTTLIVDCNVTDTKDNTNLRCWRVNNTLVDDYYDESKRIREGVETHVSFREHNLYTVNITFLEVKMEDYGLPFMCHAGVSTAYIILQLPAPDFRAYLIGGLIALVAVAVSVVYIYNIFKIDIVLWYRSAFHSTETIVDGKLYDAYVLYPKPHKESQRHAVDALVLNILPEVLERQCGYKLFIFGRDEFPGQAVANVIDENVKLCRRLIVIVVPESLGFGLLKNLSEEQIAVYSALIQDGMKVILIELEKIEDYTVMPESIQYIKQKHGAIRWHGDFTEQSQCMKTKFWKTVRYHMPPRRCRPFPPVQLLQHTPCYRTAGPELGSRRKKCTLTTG

T4: hIL-36R-His (extracellular domain of human IL-36R with C-terminal His tag) (human (homo sapiens), UniProt Q9HB29 20-335)
T4 construct: also called human hIL-36R-His
T4 sequence: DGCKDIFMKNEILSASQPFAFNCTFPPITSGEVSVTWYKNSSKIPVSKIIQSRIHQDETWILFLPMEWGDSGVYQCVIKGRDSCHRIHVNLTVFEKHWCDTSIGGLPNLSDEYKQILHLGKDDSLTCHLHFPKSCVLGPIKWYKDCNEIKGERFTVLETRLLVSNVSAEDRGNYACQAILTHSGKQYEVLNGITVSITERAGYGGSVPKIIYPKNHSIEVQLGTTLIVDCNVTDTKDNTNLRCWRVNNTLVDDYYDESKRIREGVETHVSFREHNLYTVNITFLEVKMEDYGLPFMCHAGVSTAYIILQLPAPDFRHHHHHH

B1: R1B9VH-h1+R1B9VK-h1 (antibody, V domains shown)
VH: EVQLVESGGGLVQPGGSLRLSCAASGFTFSSYAMSWVRQAPGKGLVWVAEISRGGSHTYYPDTVTGRFTISRDNAKNTLYLQMNSLRAEDTAVYYCARSYGNYPFDYWGQGTTVTVSS
VL: EIVLTQSPATLSLSPGERATLSCSASSSVSYMYWYQQKPGQAPRLLIYDTSNLASGIPARFSGSGSGTDFTLTISSLEPEDFAVYYCQQWSSYPLTFGQGTKLEIK
notes: also called humanized IL-1R3 antibody; R1B9VH-hl+R1B9VK-h1
B2: Crossmab bispecific antibody (R1B9VH-h1+R1B9VK-h1-Fab-cross+R49E11VH-h3+L26B11VK-Fab) (bispecific antibody, human IgG1, kappa)
heavy 1: QVQLVQSGAEVKKPGASVKVSCKASGYSFTSSWIHWVRQAPGQGLEWMGEINPGSGRSNYNENFQGRVTMTVDTSISTAYMELSRLRSDDTAVYYCTVVFYGEPYFPFWGQGTLVTVSSASTKGPSVFPLAPSSKSTSEGTAALGCLVKDYFPEPVTVSWNSGALTSGVHTFPAVLQSSGLYSLSSVVTVPSSSLGTQTYICNVDHKPSNTKVDKTVEPKSCDKTHTCPPCPAPEFEGGPSVFLFPPKPKDTLMISRTPEVTCVVVDVSQEDPEVQFNWYVDGVEVHNAKTKPREEQYNSTYRVVSVLTVLHQDWLNGKEYKCKVSNKALPASIEKTISKAKGQPREPQVCTLPPSQEEMTKNQVSLSCAVKGFYPSDIAVEWESNGQPENNYKTTPPVLDSDGSFFLVSKLTVDKSRWQEGNVFSCSVMHEALHNHYTQKSLSLSPGK
light 1: EIVLTQSPGTLSLSPGERATLSCRASQSVIYSYLAWYQQKPGQAPRLLIYSASKRASGIPDRFSGSGSGTDFTLTISRLEPEDFAVYYCQQHAGIPVTFGQGTKVEIKRTVAAPSVFIFPPSDEQLKSGTASVVCLLNNFYPREAKVQWKVDNALQSGNSQESVTEQDSKDSTYSLSSTLTLSKADYEKHKVYACEVTHQGLSSPVTKSFNRGEC
heavy 2: EVQLVESGGGLVQPGGSLRLSCAASGFTFSSYAMSWVRQAPGKGLVWVAEISRGGSHTYYPDTVTGRFTISRDNAKNTLYLQMNSLRAEDTAVYYCARSYGNYPFDYWGQGTTVTVSSASVAAPSVFIFPPSDEQLKSGTASVVCLLNNFYPREAKVQWKVDNALQSGNSQESVTEQDSKDSTYSLSSTLTLSKADYEKHKVYACEVTHQGLSSPVTKSFNRGECDKTHTCPPCPAPEFEGGPSVFLFPPKPKDTLMISRTPEVTCVVVDVSHEDPEVKFNWYVDGVEVHNAKTKPREEQYNSTYRVVSVLTVLHQDWLNGKEYKCKVSNKALPASIEKTISKAKGQPREPQVYTLPPCREEMTKNQVSLWCLVKGFYPSDIAVEWESNGQPENNYKTTPPVLDSDGSFFLYSKLTVDKSRWQQGNVFSCSVMHEALHNHYTQKSLSLSPGK
light 2: EIVLTQSPATLSLSPGERATLSCSASSSVSYMYWYQQKPGQAPRLLIYDTSNLASGIPARFSGSGSGTDFTLTISSLEPEDFAVYYCQQWSSYPLTFGQGTKLEIKSSASTKGPSVFPLAPSSKSTSGGTAALGCLVKDYFPEPVTVSWNSGALTSGVHTFPAVLQSSGLYSLSSVVTVPSSSLGTQTYICNVNHKPSNTKVDKRVEPKSC
notes: also called IL-36R×IL-1R3 Crossmab bispecific antibody
B3: Spesolimab (antibody, V domains shown)
VH: QVQLVQSGAEVKKPGASVKVSCKASGYSFTSSWIHWVKQAPGQGLEWMGEINPGNVRTNYNENFRNKVTMTVDTSISTAYMELSRLRSDDTAVYYCTVVFYGEPYFPYWGQGTLVTVSS
VL: QIVLTQSPGTLSLSPGERATMTCTASSSVSSSYFHWYQQKPGQAPRLWIYRTSRLASGVPDRFSGSGSGTDFTLTISRLEPEDAATYYCHQFHRSPLTFGAGTKLEIK
notes: Made in house from the variable regions of US9023995B2 as a whole IgG1m3 subtype antibody (control)
B4: R72B7VH+L36E9VK (antibody, V domains shown)
VH: B3 VH with T58S, V99I, F100N, P107A, Y108S
VL: EIVLTQSPGTLSLSPGERATLSCRASQSVIGSYLAWYQQKPGQAPRLLIYSASKLASGIPDRFSGSGSGTDFTLTISRLEPEDFAVYYCQQDTRYPITFGQGTKVEIK
notes: also called R72B7VH+L36E9VK monoclonal antibody
B5: R49E11VH-h3+L36E9VK (antibody, V domains shown)
VH: B3 VH with K38R, N55S, V56G, T58S, R65Q, N66G, K67R, Y108F
VL: B4 VL

How the values were obtained:
[1] = target: T1, human IL-1R3 on the cell surface (HaCAT …); test: cell-based or functional assay
[2] = target: T2, hIL-1R3-His (extracellular domain of …); test: SPR (Biacore T200), antibody captured by anti-human Fc, hIL-1R3-His as analyte, 1:1 model
[3] = target: T2, hIL-1R3-His (extracellular domain of …); test: as above; remark: listed apart in the source
[4] = target: T2, hIL-1R3-His (extracellular domain of …); test: as above; remark: listed apart in the source
[5] = target: T3, human IL-36R on the cell surface …; test: cell-based or functional assay
[6] = target: T3, human IL-36R on the cell surface …; test: cell-based or functional assay; remark: listed apart in the source
[7] = target: T4, hIL-36R-His (extracellular domain of …); test: SPR (Biacore T200), antibody captured by anti-human Fc, hIL-36R-His as analyte, 1:1 model
[8] = target: T3, human IL-36R on the cell surface …; test: cell-based or functional assay; remark: listed apart in the source
[9] = target: T3, human IL-36R on the cell surface …; test: cell-based or functional assay; remark: listed apart in the source
[10] = target: T4, hIL-36R-His (extracellular domain of …); test: SPR (Biacore T200), antibody captured by anti-human Fc, hIL-36R-His as analyte, 1:1 model; remark: listed apart in the source
[11] = target: T4, hIL-36R-His (extracellular domain of …); test: as above; remark: listed apart in the source

Binder	Kd [3]	koff [3]	kon [3]	IC50 for inhibiting IL-36α from inducing hIL-8 secretion by HaCAT cells [6]	IC50 for inhibiting IL-36β from inducing hIL-8 secretion by HaCAT cells [6]	IC50 for inhibiting IL-36γ from inducing hIL-8 secretion by HaCAT cells [6]	IC50 for inhibiting IL-36α from inducing hIL-8 secretion by HaCAT cells [8]	IC50 for inhibiting IL-36β from inducing hIL-8 secretion by HaCAT cells [8]	IC50 for inhibiting IL-36γ from inducing hIL-8 secretion by HaCAT cells [8]	Kd [11]	koff [11]	kon [11]	also measured
B1	1.45 nM	0.000153 s⁻¹	106000 M⁻¹ s⁻¹										IC50 for inhibiting IL-36α from inducing hIL-8 secretion by HaCAT cells [1]: 0.195 nM; IC50 for inhibiting IL-36β from inducing hIL-8 secretion by HaCAT cells [1]: 0.0961 nM; IC50 for inhibiting IL-36γ from inducing hIL-8 secretion by HaCAT cells [1]: 0.608 nM; Kd [2]: 1.12 nM; koff [2]: 0.000111 s⁻¹; kon [2]: 99200 M⁻¹ s⁻¹; Kd [4]: 1.45 nM; koff [4]: 0.000153 s⁻¹; kon [4]: 106000 M⁻¹ s⁻¹
B2	0.761 nM	0.000155 s⁻¹	203000 M⁻¹ s⁻¹	0.0183 nM	0.0211 nM	0.0184 nM							fold increase of activity by IC50 against R49E11VH-h3+L26B11VK, IL-36α, HaCAT hIL-8 secretion [5]: ~3 fold; fold increase of activity by IC50 against R49E11VH-h3+L26B11VK, IL-36β, HaCAT hIL-8 secretion [5]: ~13 fold; fold increase of activity by IC50 against R49E11VH-h3+L26B11VK, IL-36γ, HaCAT hIL-8 secretion [5]: ~103 fold; Kd [7]: 0.669 nM; koff [7]: 4.37e-05 s⁻¹; kon [7]: 65400 M⁻¹ s⁻¹
B3				0.0433 nM	0.172 nM	0.642 nM	0.0939 nM	0.114 nM	0.682 nM				IC50 for inhibiting IL-36γ-induced hIL-8 secretion by human monocytes [9]: 0.0288 nM; Kd [10]: 2.56 nM; koff [10]: 7.39e-05 s⁻¹; kon [10]: 28800 M⁻¹ s⁻¹
B4							0.508 nM	0.511 nM	3.65 nM	1.65 nM	5.4e-05 s⁻¹	32800 M⁻¹ s⁻¹	
B5										11.4 nM	9.94e-05 s⁻¹	8690 M⁻¹ s⁻¹	
